# Data reported in patent US20230002480A1.
# Experiments:
# Test in all cases: cell-based or functional assay
# [1] = target: HIV-1 Env of pseudovirus 0260.v5.c36 (HIV-1)
# [2] = target: HIV-1 Env of pseudovirus 1012_11_TC21_3257 (HIV-1)
# [3] = target: HIV-1 Env of pseudovirus 191955_A11 (HIV-1)
# [4] = target: HIV-1 Env of pseudovirus 211-9 (HIV-1)
# [5] = target: HIV-1 Env of pseudovirus 3365.v2.c2 (HIV-1)
# [6] = target: HIV-1 Env of pseudovirus 6240_08_TA5_4622 (HIV-1)
# [7] = target: HIV-1 Env of pseudovirus AC10.0.29 (HIV-1)
# [8] = target: HIV-1 Env of pseudovirus BJOX025000.01.1 (HIV-1)
# [9] = target: HIV-1 Env of pseudovirus BJOX028000.10.3 (HIV-1)
# [10] = target: HIV-1 Env of pseudovirus C2101.c01 (HIV-1)
# [11] = target: HIV-1 Env of pseudovirus CNE17 (HIV-1)
# [12] = target: HIV-1 Env of pseudovirus CNE19 (HIV-1)
# [13] = target: HIV-1 Env of pseudovirus CNE21 (HIV-1)
# [14] = target: HIV-1 Env of pseudovirus CNE52 (HIV-1)
# [15] = target: HIV-1 Env of pseudovirus CNE53 (HIV-1)
# [16] = target: HIV-1 Env of pseudovirus Ce1172_H1 (HIV-1)
# [17] = target: HIV-1 Env of pseudovirus Ce1176_A3 (HIV-1)
# [18] = target: HIV-1 Env of pseudovirus Ce2010_F5 (HIV-1)
# [19] = target: HIV-1 Env of pseudovirus Du156.12 (HIV-1)
# [20] = target: HIV-1 Env of pseudovirus HIV-0013095-2.11 (HIV-1)
# [21] = target: HIV-1 Env of pseudovirus HIV-16845-2.22 (HIV-1)
# [22] = target: HIV-1 Env of pseudovirus Q461.e2 (HIV-1)
# [23] = target: HIV-1 Env of pseudovirus SC422661.8 (HIV-1)
# [24] = target: HIV-1 Env of pseudovirus T250-4 (HIV-1)
# [25] = target: HIV-1 Env of pseudovirus T255-34 (HIV-1)
# [26] = target: HIV-1 Env of pseudovirus THRO4156.18 (HIV-1)
# [27] = target: HIV-1 Env of pseudovirus TRO.11 (HIV-1)
# [28] = target: HIV-1 Env of pseudovirus WEAU_d15_410_787 (HIV-1)
# [29] = target: HIV-1 Env of pseudovirus X2088_c9 (HIV-1)
# [30] = target: HIV-1 Env of pseudovirus ZM109F.PB4 (HIV-1)
# [31] = target: HIV-1 Env of pseudovirus ZM247v1(Rev-) (HIV-1)
substance,measurement,setting,value
N49P7 (antibody),neutralization IC50,[1],0.354 µg/mL
same,neutralization IC80,[1],0.884 µg/mL
same,neutralization MPI,[1],100
same,neutralization IC50,[2],0.046 µg/mL
same,neutralization IC80,[2],0.125 µg/mL
same,neutralization MPI,[2],100
same,neutralization IC50,[3],1.81 µg/mL
same,neutralization IC80,[3],8.87 µg/mL
same,neutralization MPI,[3],99
same,neutralization IC50,[4],0.22 µg/mL
same,neutralization IC80,[4],0.767 µg/mL
same,neutralization MPI,[4],100
same,neutralization IC50,[5],0.07 µg/mL
same,neutralization IC80,[5],0.186 µg/mL
same,neutralization MPI,[5],100
same,neutralization IC50,[6],0.457 µg/mL
same,neutralization IC80,[6],1.73 µg/mL
same,neutralization MPI,[6],100
same,neutralization IC50,[7],5.03 µg/mL
same,neutralization IC80,[7],36.7 µg/mL
same,neutralization MPI,[7],89
same,neutralization IC50,[8],0.038 µg/mL
same,neutralization IC80,[8],0.236 µg/mL
same,neutralization MPI,[8],100
same,neutralization IC50,[9],0.02 µg/mL
same,neutralization IC80,[9],0.123 µg/mL
same,neutralization MPI,[9],100
same,neutralization IC50,[10],0.06 µg/mL
same,neutralization IC80,[10],0.34 µg/mL
same,neutralization MPI,[10],100
same,neutralization IC50,[11],0.126 µg/mL
same,neutralization IC80,[11],0.46 µg/mL
same,neutralization MPI,[11],100
same,neutralization IC50,[12],0.009 µg/mL
same,neutralization IC80,[12],0.041 µg/mL
same,neutralization MPI,[12],100
same,neutralization IC50,[13],0.756 µg/mL
same,neutralization IC80,[13],6.02 µg/mL
same,neutralization MPI,[13],97
same,neutralization IC50,[14],0.008 µg/mL
same,neutralization IC80,[14],0.023 µg/mL
same,neutralization MPI,[14],100
same,neutralization IC50,[15],0.035 µg/mL
same,neutralization IC80,[15],0.124 µg/mL
same,neutralization MPI,[15],100
same,neutralization IC50,[16],8.5 µg/mL
same,neutralization IC80,[16],37.5 µg/mL
same,neutralization MPI,[16],92
same,neutralization IC50,[17],0.204 µg/mL
same,neutralization IC80,[17],0.589 µg/mL
same,neutralization MPI,[17],100
same,neutralization IC50,[18],0.13 µg/mL
same,neutralization IC80,[18],0.547 µg/mL
same,neutralization MPI,[18],100
same,neutralization IC50,[19],0.032 µg/mL
same,neutralization IC80,[19],0.086 µg/mL
same,neutralization MPI,[19],100
same,neutralization IC50,[20],0.073 µg/mL
same,neutralization IC80,[20],0.253 µg/mL
same,neutralization MPI,[20],100
same,neutralization IC50,[21],0.95 µg/mL
same,neutralization IC80,[21],3.94 µg/mL
same,neutralization MPI,[21],100
same,neutralization IC50,[22],0.261 µg/mL
same,neutralization IC80,[22],0.922 µg/mL
same,neutralization MPI,[22],100
same,neutralization IC50,[23],0.114 µg/mL
same,neutralization IC80,[23],0.32 µg/mL
same,neutralization MPI,[23],100
same,neutralization IC50,[24],2.07 µg/mL
same,neutralization IC80,[24],21.4 µg/mL
same,neutralization MPI,[24],91
same,neutralization IC50,[25],0.053 µg/mL
same,neutralization IC80,[25],0.262 µg/mL
same,neutralization MPI,[25],100
same,neutralization IC50,[26],2.34 µg/mL
same,neutralization IC80,[26],12.4 µg/mL
same,neutralization MPI,[26],99
same,neutralization IC50,[27],0.044 µg/mL
same,neutralization IC80,[27],0.16 µg/mL
same,neutralization MPI,[27],100
same,neutralization IC50,[28],0.045 µg/mL
same,neutralization IC80,[28],0.117 µg/mL
same,neutralization MPI,[28],100
same,neutralization IC50,[29],0.116 µg/mL
same,neutralization IC80,[29],0.338 µg/mL
same,neutralization MPI,[29],100
same,neutralization IC50,[30],0.034 µg/mL
same,neutralization IC80,[30],0.153 µg/mL
same,neutralization MPI,[30],100
same,neutralization IC50,[31],0.062 µg/mL
same,neutralization IC80,[31],0.214 µg/mL
same,neutralization MPI,[31],100
N49P7.1 (antibody),neutralization IC50,[1],0.497 µg/mL
same,neutralization IC80,[1],1.51 µg/mL
same,neutralization MPI,[1],100
same,neutralization IC50,[2],0.063 µg/mL
same,neutralization IC80,[2],0.176 µg/mL
same,neutralization MPI,[2],100
same,neutralization IC50,[3],1.99 µg/mL
same,neutralization IC80,[3],10.1 µg/mL
same,neutralization MPI,[3],98
same,neutralization IC50,[4],0.34 µg/mL
same,neutralization IC80,[4],1.17 µg/mL
same,neutralization MPI,[4],100
same,neutralization IC50,[5],0.088 µg/mL
same,neutralization IC80,[5],0.289 µg/mL
same,neutralization MPI,[5],100
same,neutralization IC50,[6],0.509 µg/mL
same,neutralization IC80,[6],1.95 µg/mL
same,neutralization MPI,[6],100
same,neutralization IC50,[7],5.31 µg/mL
same,neutralization IC80,[7],46.8 µg/mL
same,neutralization MPI,[7],85
same,neutralization IC50,[8],0.057 µg/mL
same,neutralization IC80,[8],0.378 µg/mL
same,neutralization MPI,[8],100
same,neutralization IC50,[9],0.031 µg/mL
same,neutralization IC80,[9],0.29 µg/mL
same,neutralization MPI,[9],100
same,neutralization IC50,[10],0.076 µg/mL
same,neutralization IC80,[10],0.425 µg/mL
same,neutralization MPI,[10],100
same,neutralization IC50,[11],0.254 µg/mL
same,neutralization IC80,[11],0.86 µg/mL
same,neutralization MPI,[11],100
same,neutralization IC50,[12],0.027 µg/mL
same,neutralization IC80,[12],0.128 µg/mL
same,neutralization MPI,[12],100
same,neutralization IC50,[13],1.58 µg/mL
same,neutralization IC80,[13],12.2 µg/mL
same,neutralization MPI,[13],96
same,neutralization IC50,[14],0.021 µg/mL
same,neutralization IC80,[14],0.058 µg/mL
same,neutralization MPI,[14],100
same,neutralization IC50,[15],0.066 µg/mL
same,neutralization IC80,[15],0.228 µg/mL
same,neutralization MPI,[15],100
same,neutralization IC50,[16],17.1 µg/mL
same,neutralization IC80,[16],> 50 µg/mL
same,neutralization MPI,[16],78
same,neutralization IC50,[17],0.279 µg/mL
same,neutralization IC80,[17],1.01 µg/mL
same,neutralization MPI,[17],100
same,neutralization IC50,[18],0.055 µg/mL
same,neutralization IC80,[18],0.208 µg/mL
same,neutralization MPI,[18],100
same,neutralization IC50,[19],0.045 µg/mL
same,neutralization IC80,[19],0.131 µg/mL
same,neutralization MPI,[19],100
same,neutralization IC50,[20],0.105 µg/mL
same,neutralization IC80,[20],0.374 µg/mL
same,neutralization MPI,[20],100
same,neutralization IC50,[21],1.07 µg/mL
same,neutralization IC80,[21],5.4 µg/mL
same,neutralization MPI,[21],100
same,neutralization IC50,[22],0.329 µg/mL
same,neutralization IC80,[22],1.14 µg/mL
same,neutralization MPI,[22],100
same,neutralization IC50,[23],0.125 µg/mL
same,neutralization IC80,[23],0.417 µg/mL
same,neutralization MPI,[23],100
same,neutralization IC50,[24],2.27 µg/mL
same,neutralization IC80,[24],24.7 µg/mL
same,neutralization MPI,[24],89
same,neutralization IC50,[25],0.094 µg/mL
same,neutralization IC80,[25],0.447 µg/mL
same,neutralization MPI,[25],100
same,neutralization IC50,[26],3.07 µg/mL
same,neutralization IC80,[26],12.6 µg/mL
same,neutralization MPI,[26],98
same,neutralization IC50,[27],0.055 µg/mL
same,neutralization IC80,[27],0.191 µg/mL
same,neutralization MPI,[27],100
same,neutralization IC50,[28],0.058 µg/mL
same,neutralization IC80,[28],0.142 µg/mL
same,neutralization MPI,[28],100
same,neutralization IC50,[29],0.199 µg/mL
same,neutralization IC80,[29],0.726 µg/mL
same,neutralization MPI,[29],100
same,neutralization IC50,[30],0.055 µg/mL
same,neutralization IC80,[30],0.199 µg/mL
same,neutralization MPI,[30],100
same,neutralization IC50,[31],0.038 µg/mL
same,neutralization IC80,[31],0.176 µg/mL
same,neutralization MPI,[31],100
